Experimental data: paper PMC5105069, “Structural assemblies of the di- and oligomeric G-protein coupled receptor TGR5 in live cells: an MFIS-FRET and integrative modelling study” (Scientific Reports, 2016)
Residue numbers refer to the chain shown, from its start. Names and notes keep the numbering of the source.

Columns and labels:
[1] = molecular target: T1, TGR5 wt fused to GFP or mCherry (TGR5 wt-GFP and TGR5 wt-mCherry), Q8TDU6; assay: FRET or BRET; MFIS-FRET in live HEK293 cells; GFP (donor) and mCherry (acceptor) on the C-terminus of TGR5; acceptor titration up to donor:acceptor 1:40; total TGR5 0.5-13 uM; also before and after 10 uM taurocholate (no change); KD2 is of the step tetramer to dimers, modelled by a dimer/tetramer simulation of E_mean against the donor-acceptor ratio with KD1 of the dimer fixed to 10 nM; details: remark: other sources report otherwise
T1 chain: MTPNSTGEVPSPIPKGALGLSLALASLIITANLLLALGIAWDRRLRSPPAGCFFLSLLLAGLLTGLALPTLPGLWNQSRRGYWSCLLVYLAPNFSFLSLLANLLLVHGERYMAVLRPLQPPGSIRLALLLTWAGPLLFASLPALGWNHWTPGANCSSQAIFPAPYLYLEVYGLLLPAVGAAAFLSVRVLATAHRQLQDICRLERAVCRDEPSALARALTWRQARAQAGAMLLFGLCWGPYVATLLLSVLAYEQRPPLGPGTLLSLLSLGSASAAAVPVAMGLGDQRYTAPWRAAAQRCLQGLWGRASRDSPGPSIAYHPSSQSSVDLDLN

[2] = molecular target: the molecule itself; assay: as above

B1: TGR5 wt fused to GFP or mCherry (TGR5 wt-GFP and TGR5 wt-mCherry), Q8TDU6 1-330 (receptor)
chain: T1 chain
KD2 (tetramer to dimers, modeled) [1]: 70 nM | stoichiometry N [1]: 4

B2: TGR5 Y111F fused to GFP or mCherry (receptor, UniProt Q8TDU6 1-330, looked up)
chain: T1 chain with Y111F
notes: TGR5 (GPBAR-1, M-BAR) with Y111F in the ERY motif; Two differently tagged copies (GFP donor, mCherry acceptor), co-expressed; Each copy carries only one fluorescent protein; also called Y111F variant; source: HEK293, transiently transfected, in live cells; not shown: GFP, C-terminal, kept; mCherry, C-terminal, kept
stoichiometry N [2]: 4

B3: TGR5 Y111A fused to GFP or mCherry (receptor, UniProt Q8TDU6 1-330, looked up)
chain: T1 chain with Y111A
notes: TGR5 (GPBAR-1, M-BAR) with Y111A in the ERY motif; Two differently tagged copies (GFP donor, mCherry acceptor), co-expressed; Each copy carries only one fluorescent protein; also called Y111A variant; source: HEK293, transiently transfected, in live cells; not shown: GFP, C-terminal, kept; mCherry, C-terminal, kept
stoichiometry N [2]: 2
